{"source": "patent EP4703474A1", "about": "“ANTI-LRRC15 ANTIBODY” (priority 2023, dated 2024)", "key": {"[1]": {"tested_on": "Pancreatic carcinoma cell line BxPC-3 and human adipose tissue-derived mesenchymal stem cells", "assay": "In vivo antitumor effect, BxPC-3 co-transplanted with mesenchymal stem cells", "settings": "BxPC-3 and MSC at 1:3; 0.4 mg/kg, tail vein, on Day 27; female SCID mice", "protocol": "(§1) The antitumor effects of the antibody-drug conjugates were evaluated by using animal models in which cells of a human tumor cell line had been transplanted into immunodeficient mice, or cells of a mouse tumor cell line had been transplanted into immunocompetent mice. 4 to 6 Week-old SCID mice (CB17/Icr-Prkdc[scid]/CrlCrlj, Jackson Laboratory Japan, Inc.), NSG mice (NOD.Cg-Prkdcscid Il2rgtm1Wjl/SzJ, Jackson Laboratory Japan, Inc.), or B6J mice (C57BL/6J, Jackson Laboratory Japan, Inc.) were habituated for 3 days or more under SPF conditions before experimental use. The mice were fed with sterilized solid feed and given sterilized tap water. The major and minor diameters of the transplanted tumors were measured twice a week with an electronic digital caliper (Mitutoyo Corporation), and the estimated tumor volume was calculated using the following formula. Estimated tumor volume (mm^3) = 1/2 × major diameter (mm) × [minor diameter (mm)]^2 All antibody-drug conjugates were diluted with ABS and administered into the tail vein at doses shown in each Example. In addition, ABS (vehicle) or control hIgG-PBD prepared in Reference Example 4 was administered as the control group, in a similar manner. 5 to 6 Mice were used per group in the experiment. To analyze the LRRC15 expression in mouse tumor models, immunohistochemical staining of LRRC15 was performed. […]"}, "[2]": {"tested_on": "Gastric carcinoma cell line Caki-1", "assay": "In vivo antitumor effect, Caki-1 subcutaneous transplant model", "settings": "0.4 mg/kg, tail vein, on Day 21, female SCID mice", "protocol": "as §1"}}}
{"molecule": "H02L01-V1-PBD (conjugate) heavy: EVQLVESGGGLVQPGGSLRLSCAASGFTFRDYYMAWVRQAPGKGLEWVSSIGFDESRTYYADSVKGRFTISRDDSKNTLYLQMNSLRAEDTAVYYCARHGVSKYSGDNWFAYWGQGTLVTVSSASTKGPSVFPLAPSSKSTSGGTAALGCLVKDYFPEPVTVSWNSGALTSGVHTFPAVLQSSGLYSLSSVVTVPSSSLGTQTYICNVNHKPSNTKVDKKVEPKSCDKTHTCPPCPAPEAAGGPSVFLFPPKPKDTLMISRTPEVTCVVVDVSHEDPEVKFNWYVDGVEVHNAKTKPREEQYNSTYRVVSVLTVLHQDWLNGKEYKCKVSNKALAAPIEKTISKAKGQPREPQVYTLPPSREEMTKNQVSLTCLVKGFYPSDIAVEWESNGQPENNYKTTPPVLDSDGSFFLYSKLTVDKSRWQQGNVFSCSVMHEALHNHYTQKSLSLSPGK light: DIQMTQSPSSLSASVGDRVTITCKSSQGLLYSGDQKNYLAWYQQKPGKAPKLLIYWASTRQSGVPSRFSGSGSGTDFTLTISSLQPEDFATYYCQQYYDPPYTFGQGTKVEIKRTVAAPSVFIFPPSDEQLKSGTASVVCLLNNFYPREAKVQWKVDNALQSGNSQESVTEQDSKDSTYSLSSTLTLSKADYEKHKVYACEVTHQGLSSPVTKSFNRGEC", "values": [{"measurement": "antitumor effect (estimated tumor volume)", "setting": "[1]", "result": "antitumor activity higher than that of the vehicle and control hIgG-PBD"}, {"measurement": "antitumor effect (estimated tumor volume)", "setting": "[2]", "result": "antitumor activity higher than that of the vehicle and control hIgG-PBD"}]}
